Experimental findings from US20150344570A1 (published 2015) are described below.

The target in assay [1] is T1, FcγRIa extracellular domain with C-terminal His tag (human, UniProt P12314 16-292).
T1 construct: extracellular domain; also called FcgRI; 1a
Description: SPR (Biacore); He/Con_1a divided by He/Con_2b (FcγRIa binding over FcγRIIb binding). Here is the method: (§1) The heterodimerized antibodies He Abs in which one of the H chains was introduced with an alteration were assayed for their binding activities to each activating FcγR and inhibitory FcγR according to the method described in Example 4. […] The activating FcγRs in FIGS. 26, 27, 28, and 29 are FcγRIa, FcγRIIa (R), FcγRIIa (H), and FcγRIIIa, respectively.
(§2) Analysis of interaction between objective antibody and the FcγR was carried out using Biacore T100 (GE Healthcare). HBS-EP+ (GE Healthcare) was used as the running buffer, and the measurement temperature was set to 25° C. Chips produced by immobilizing the antigen peptide by the amine coupling method to a Series S Sencor Chip CM5 (GE Healthcare), or alternatively, chips produced by allowing preliminarily biotinylated antigen peptides to interact with and immobilize onto a Series S Sensor Chip SA (certified) (GE Healthcare) were used. Antibodies of interest were captured onto an antigen peptide-immobilized chip, and allowed to interact to each FcγR diluted with running buffer. To regenerate and repeatedly use the chip, the antibodies captured on the chip were washed off by reacting 10 mM glycine-HCl, pH 1.5.
Background: In SPR one partner is held on a chip, and binding of the other changes the refractive index at the surface.

The target of assay [2] is T1, FcγRIa extracellular domain with …. The assay can be described thus: SPR (Biacore), antibody captured via antigen peptide, FcγR as analyte; relative binding. How it is done:
as §1, §2

Assay [3] has as its target T2, FcγRIIb extracellular domain with C-terminal His tag (human, UniProt P31994 43-217).
T2 construct: extracellular domain; also called FcgRIIb; 2b
T2 sequence (looked up): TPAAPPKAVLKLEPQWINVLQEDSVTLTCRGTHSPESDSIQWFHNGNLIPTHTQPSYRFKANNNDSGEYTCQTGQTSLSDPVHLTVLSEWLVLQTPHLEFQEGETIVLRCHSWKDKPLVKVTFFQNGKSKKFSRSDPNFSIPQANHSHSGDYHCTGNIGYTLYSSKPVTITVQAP
The assay is described as above. Here is the method:
as §1, §2

A further assay addresses T3, FcgRIIaH (human, UniProt P12318 34-217).
T3 construct: extracellular domain; also called FcγRIIa H; FcgRIIa type H; not shown: His tag attached to the C terminus
T3 sequence (looked up): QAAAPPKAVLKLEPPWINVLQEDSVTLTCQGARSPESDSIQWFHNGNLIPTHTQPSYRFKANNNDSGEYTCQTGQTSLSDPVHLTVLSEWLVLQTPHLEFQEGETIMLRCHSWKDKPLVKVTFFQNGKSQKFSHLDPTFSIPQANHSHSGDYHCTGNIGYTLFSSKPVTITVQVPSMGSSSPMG
The assay can be described thus: SPR (Biacore); KD of H240-Kn033/H240-Hl033/L73-k0 divided by KD of this variant. Here is the method: (§3) H240-Kn204/H240-Hl211/L73-k0 and H240-Kn205/H240-Hl212/L73-k0 were prepared according to the method of Reference Example 1, by combining H240-Kn204 as one of the H chains and L73-k0 as the L chains with H240-Hl211 as the other H chain, and by combining H240-Kn205 as one of the H chains and L73-k0 as the L chains with H240-Hl212 as the other H chain, and then expressing them. The binding of the prepared variants to FcgRIa, FcgRIIaR, FcgRIIaH, FcgRIIb, FcgRIIIaF, and FcgRIIIaV was measured according to the method of Reference Example 8.
(§4) “fold 2aR”, “fold 2aH”, “fold 2b”, “fold 3aF”, and “fold 3aV” show the relative binding activity of each variant to FcgRIIaR, FcgRIIaH, FcgRIIb, FcgRIIIaF, and FcgRIIIaV, respectively, when the binding activity of H240-Kn033/H240-Hl033/L73-k0, a variant produced by introducing only alterations that promote formation of a heterodimerized antibody into a native IgG1, is defined as 1. Specifically, they are values obtained by dividing the KD value of H240-Kn033/H240-Hl033/L73-k0 for each FcgR by the KD value of an individual variant for each FcgR.
(§5) Analysis of interaction between objective antibody and the FcγR was carried out using Biacore T100 (GE Healthcare), Biacore T200, Biacore A100, and Biacore 4000. HBS-EP+ (GE Healthcare) was used as the running buffer, and the measurement temperature was set to 25° C. Chips produced by immobilizing the antigen peptide by the amine coupling method to a Series S sensor Chip CM5 (GE Healthcare), chips produced by allowing preliminarily biotinylated antigen peptides to interact with and immobilize onto a Series S Sensor Chip SA (certified) (GE Healthcare), chips produced by immobilizing Protein L (ACTIGEN, BioVision) to Series S Sencor Chip CM5 (GE Healthcare), or chips produced by immobilizing Protein A/G (Thermo Scientific) to Series S Sencor Chip CM5 (GE Healthcare) were used. Antibodies of interest were captured onto these chips, and allowed to interact to each FcγR diluted with running buffer.

The target of the next assay is T4, FcgRIIIaF (human, UniProt P08637 17-208).
T4 construct: extracellular domain; also called FcγRIIIa F; 3aF; not shown: His tag attached to the C terminus
Described as above. Here is the method: as §3, §4, §5

For the next assay, the target named is T5, FcgRIIb (human, UniProt P31994 43-217).
T5 construct: extracellular domain; also called FcγRIIb; 2b; not shown: His tag attached to the C terminus
T5 sequence (looked up): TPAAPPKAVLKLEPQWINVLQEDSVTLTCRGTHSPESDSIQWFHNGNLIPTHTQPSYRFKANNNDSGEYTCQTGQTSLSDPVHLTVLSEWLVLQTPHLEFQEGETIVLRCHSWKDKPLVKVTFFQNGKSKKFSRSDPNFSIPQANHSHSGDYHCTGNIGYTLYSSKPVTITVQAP
Described as above. Here is the method: as §3, §4, §5

A further assay has as its target T6, FcgRIIIaV (human, UniProt P08637 17-208).
T6 construct: extracellular domain; also called FcγRIIIa V; 3aV; not shown: His tag attached to the C terminus
The description is as above. Here is the method: as §3, §4, §5

The target in a further assay is T7, FcgRIIaR (human, UniProt P12318 34-217).
T7 construct: extracellular domain; also called FcγRIIa R; FcgRIIa type R; not shown: His tag attached to the C terminus
T7 sequence (looked up): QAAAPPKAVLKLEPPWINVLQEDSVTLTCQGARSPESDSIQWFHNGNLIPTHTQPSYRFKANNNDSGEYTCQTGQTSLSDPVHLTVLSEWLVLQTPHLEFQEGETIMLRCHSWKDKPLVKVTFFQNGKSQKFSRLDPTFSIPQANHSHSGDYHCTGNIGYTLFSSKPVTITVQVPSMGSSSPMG
Described as above. Here is the method: as §3, §4, §5

T1 sequence (P12314 16-292): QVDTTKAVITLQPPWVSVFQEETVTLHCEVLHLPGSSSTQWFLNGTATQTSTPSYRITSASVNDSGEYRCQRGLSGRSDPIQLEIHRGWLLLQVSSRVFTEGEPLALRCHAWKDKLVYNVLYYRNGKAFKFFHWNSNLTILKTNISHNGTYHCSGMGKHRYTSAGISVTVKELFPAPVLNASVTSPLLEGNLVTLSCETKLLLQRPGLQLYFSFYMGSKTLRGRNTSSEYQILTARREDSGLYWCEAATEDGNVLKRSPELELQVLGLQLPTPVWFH
T4 sequence (P08637 17-208): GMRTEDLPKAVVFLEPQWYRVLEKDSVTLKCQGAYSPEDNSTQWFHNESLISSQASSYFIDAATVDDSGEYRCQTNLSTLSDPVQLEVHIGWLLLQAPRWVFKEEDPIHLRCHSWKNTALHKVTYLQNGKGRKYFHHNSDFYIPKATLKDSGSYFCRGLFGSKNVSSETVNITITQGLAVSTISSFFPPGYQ
T6 sequence (P08637 17-208 F176V limits assumed): as the sequence (P08637 17-208) above, with F160V counted along it

B1: GpH7-A5/GpH7-B3 variant Y296_13S/GpL16-k0 (antibody, human IgG1, kappa)
heavy 1: not shown
heavy 2: not shown
light: DIVMTQSPLSLPVTPGEPASISCQASESLVHSNRNTYLHWYLQKPGQSPQLLIYKVSNRFSGVPDRFSGSGSGTDFTLKISRVEAEDVGVYYCSQNTHVPPTFGQGTKVEIERTVAAPSVFIFPPSDEQLKSGTASVVCLLNNFYPREAKVQWKVDNALQSGNSQESVTEQDSKDSTYSLSSTLTLSKADYEKHKVYACEVTHQGLSSPVTKSFNRGEC
notes: Heterodimerized anti-glypican-3 IgG1; alteration only in the GpH7-B3 chain, EU numbering; also called He Ab
With B1, the “He_1a/2b (Ia/IIb)” value in assay [1] worked out at 1.22 ratio. Further, the He/Con_1a in assay [2] was 105 % of GpH7-A5/GpH7-B3/GpL16-k0 (=100). In addition, in assay [3], the He/Con_2b is 86.3 % of GpH7-A5/GpH7-B3/GpL16-k0 (=100).

B2: GpH7-A5/GpH7-B3 variant Y296_19Q/GpL16-k0 (antibody, human IgG1, kappa)
heavy 1: not shown
heavy 2: not shown
light: DIVMTQSPLSLPVTPGEPASISCQASESLVHSNRNTYLHWYLQKPGQSPQLLIYKVSNRFSGVPDRFSGSGSGTDFTLKISRVEAEDVGVYYCSQNTHVPPTFGQGTKVEIERTVAAPSVFIFPPSDEQLKSGTASVVCLLNNFYPREAKVQWKVDNALQSGNSQESVTEQDSKDSTYSLSSTLTLSKADYEKHKVYACEVTHQGLSSPVTKSFNRGEC
notes: as for B1
For the molecule B2, the “He_1a/2b (Ia/IIb)” value in assay [1] is 1.25 ratio. The He/Con_1a in assay [2] was 112 % of GpH7-A5/GpH7-B3/GpL16-k0 (=100). Further, in assay [3], the He/Con_2b was 89.3 % of GpH7-A5/GpH7-B3/GpL16-k0 (=100).

B3: H240-Kn032/H240-Hl032/L73-k0 (antibody, human IgG1, kappa)
heavy 1: QDQLVQSGAEVKKPGASVKVSCKASGFNIKDTYIQWVRQAPGQGLEWMGRIDPLRKQTKYREKFEGRVTITADTSTNTAYMELSSLRSEDTAVYYCVRSGREFDYWGQGTLVTVSSASTKGPSVFPLAPSSKSTSGGTAALGCLVKDYFPEPVTVSWNSGALTSGVHTFPAVLQSSGLYSLSSVVTVPSSSLGTQTYICNVNHKPSNTKVDKKVEPKSCDKTHTCPPCPAPELLGGPDVFLFPPKPKDTLMISRTPEVTCVVVDVSHEDPEVKFNWYVDGVEVHNAKTKPREEQYNSTYRVVSVLTVLHQDWLNGKEYKCKVSNKALPLPEEKTISKAKGQPREPQVCTLPPSRDELTKNQVSLWCLVKGFYPSDIAVEWESNGQPENNYKTTPPVLDSDGSFFLYSKLTVDKSRWQQGNVFSCSVMHEALHNHYTQKSLSLSP
heavy 2: QDQLVQSGAEVKKPGASVKVSCKASGFNIKDTYIQWVRQAPGQGLEWMGRIDPLRKQTKYREKFEGRVTITADTSTNTAYMELSSLRSEDTAVYYCVRSGREFDYWGQGTLVTVSSASTKGPSVFPLAPSSKSTSGGTAALGCLVKDYFPEPVTVSWNSGALTSGVHTFPAVLQSSGLYSLSSVVTVPSSSLGTQTYICNVNHKPSNTKVDKKVEPKSCDKTHTCPPCPAPELLGGPDVFLFPPKPKDTLMISRTPEVTCVVVDVSHEDPEVKFNWYVDGVEVHNAKTKPREEQYNSTYRVVSVLTVLHQDWLNGKEYKCKVSNKALPLPEEKTISKAKGQPREPQVYTLPPSRCELTKNQVSLSCAVKGFYPSDIAVEWESNGQPENNYKTTPPVLDSDGSFFLVSKLTVDKSRWQQGNVFSCSVMHEALHNHYTQKSLSLSP
light: DIQMTQSPSSLSASVGDRVTITCRASQDIHKYIAWYQQKPGQAPRLLIQYTSTLQPGVPSRFSGSGSGTDYTFTISSLQPEDIATYYCLQYEQLRTFGGGTKVEIKRTVAAPSVFIFPPSDEQLKSGTASVVCLLNNFYPREAKVQWKVDNALQSGNSQESVTEQDSKDSTYSLSSTLTLSKADYEKHKVYACEVTHQGLSSPVTKSFNRGEC
notes: Anti-epiregulin IgG1, knobs-into-holes; S239D/A330L/I332E in both H chains (comparison antibody)
Take B3: in the assay with FcgRIIaH, the “fold 2aH” value turned out to be 0.8 fold. Also, in the assay with FcgRIIIaF, the “fold 3aF” value worked out at 31.9 fold. Moreover, the “fold 2b” value in the assay with FcgRIIb stood at 5.3 fold. Besides, the “fold 3aV” value in the assay with FcgRIIIaV stood at 15.5 fold. Also, the “fold 2aR” value with FcgRIIaR was 2.2 fold.

B4: H240-Kn037/H240-Hl036/L73-k0 (antibody, human IgG1, kappa)
heavy 1: QDQLVQSGAEVKKPGASVKVSCKASGFNIKDTYIQWVRQAPGQGLEWMGRIDPLRKQTKYREKFEGRVTITADTSTNTAYMELSSLRSEDTAVYYCVRSGREFDYWGQGTLVTVSSASTKGPSVFPLAPSSKSTSGGTAALGCLVKDYFPEPVTVSWNSGALTSGVHTFPAVLQSSGLYSLSSVVTVPSSSLGTQTYICNVNHKPSNTKVDKKVEPKSCDKTHTCPPCPAPELLAGPDVFLFPPKPKDTLMISRTPEVTCVVVDVSHEDPEVKFNWYVDGVEVHNAKTKPREEQYNSTYRVVSVLTVLHQDWLNGKEYKCKVSNKALPAPEEKTISKAKGQPREPQVCTLPPSRDELTKNQVSLWCLVKGFYPSDIAVEWESNGQPENNYKTTPPVLDSDGSFFLYSKLTVDKSRWQQGNVFSCSVMHEALHNHYTQKSLSLSP
heavy 2: QDQLVQSGAEVKKPGASVKVSCKASGFNIKDTYIQWVRQAPGQGLEWMGRIDPLRKQTKYREKFEGRVTITADTSTNTAYMELSSLRSEDTAVYYCVRSGREFDYWGQGTLVTVSSASTKGPSVFPLAPSSKSTSGGTAALGCLVKDYFPEPVTVSWNSGALTSGVHTFPAVLQSSGLYSLSSVVTVPSSSLGTQTYICNVNHKPSNTKVDKKVEPKSCDKTHTCPPCPAPELLAGPDVFLFPPKPKDTLMISRTPEVTCVVVDVSHEDPEVKFNWYVDGVEVHNAKTKPREEQYNSTYRVVSVLTVLHQDWLNGKEYKCKVSNKALPAPEEKTISKAKGQPREPQVYTLPPSRCELTKNQVSLSCAVKGFYPSDIAVEWESNGQPENNYKTTPPVLDSDGSFFLVSKLTVDKSRWQQGNVFSCSVMHEALHNHYTQKSLSLSP
light: DIQMTQSPSSLSASVGDRVTITCRASQDIHKYIAWYQQKPGQAPRLLIQYTSTLQPGVPSRFSGSGSGTDYTFTISSLQPEDIATYYCLQYEQLRTFGGGTKVEIKRTVAAPSVFIFPPSDEQLKSGTASVVCLLNNFYPREAKVQWKVDNALQSGNSQESVTEQDSKDSTYSLSSTLTLSKADYEKHKVYACEVTHQGLSSPVTKSFNRGEC
Turning to B4, in the assay with FcgRIIaH, the “fold 2aH” value came to 11.3 fold. For the same molecule, the “fold 3aF” value in the assay with FcgRIIIaF turned out to be 13.8 fold. In addition, the “fold 2b” value with FcgRIIb was found to be 8.7 fold. Further, in the assay with FcgRIIIaV, the “fold 3aV” value amounted to 7.1 fold. In the assay with FcgRIIaR, the “fold 2aR” value amounted to 25.5 fold.
